Molecular target: GST-VP16 (aa 452-490) (herpes simplex virus) (UniProt P06492)
Assay: pull-down

Sequence of UniProt P06492 (P06492 452-490): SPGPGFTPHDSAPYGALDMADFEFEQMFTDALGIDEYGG

wild-type p300 over-expressed in A293 cells, Q09472 1-2414
fold more efficient pull-down than of p300ΔC: 5 fold

From PMC3042717
